Non-standard residues stand in square brackets, D forms with d. No end group written: not given here.
Target: human carbonic anhydrase II (human, UniProt P00918 1-260)
Assay: SPR

Kd: 5.8 µM
Binder: [dF][dP][dL][dS][dK] [fplsk]
